# Reference: patent publication US20070298494
# Test: BS3 chemical cross-linking in solution, SDS-PAGE, silver stain; association of the peptide with itself
protein,measurement,value
KKKKPARVGLGITTVLTMTTQSSGSRA [N-K4-M2GlyR],number of aggregates,SEQ ID No. 3 comprised 12 or more aggregates
